Measured values published in publication PMC8329863 (Acta Crystallographica. Section D, Structural Biology, 2021).

Key:
[1] = biological target: T1, VanRSc (Streptomyces coelicolor, UniProt Q8CJW1); settings: BeF3- formed from BeSO4 and NaF; Mg2+ present; phosphomimetic bound to Asp51 in the receiver domain; crystals at pH 7, room temperature
T1 construct: gene SCO3590

[2] = biological target: full-length VanR from Streptomyces coelicolor, activated state (beryllium fluoride bound at Asp51) (Streptomyces coelicolor); assay: crystal structure; activated VanRSc co-crystallized with beryllium fluoride, microbatch under oil, 2.5 M NaCl, 0.1 M Tris pH 7, 0.2 M MgCl2, room temperature; monomer in the asymmetric unit, dimer by crystal symmetry
[3] = biological target: T2, full-length VanR from Streptomyces coelicolor, inactive (unphosphorylated) state (Streptomyces coelicolor); assay: AUC; sedimentation equilibrium, 4°C, 18 000, 20 000 and 22 000 rev/min, without beryllium fluoride; global fit, monomer-dimer model (dimer to monomers); settings: both partners purified
T2 chain: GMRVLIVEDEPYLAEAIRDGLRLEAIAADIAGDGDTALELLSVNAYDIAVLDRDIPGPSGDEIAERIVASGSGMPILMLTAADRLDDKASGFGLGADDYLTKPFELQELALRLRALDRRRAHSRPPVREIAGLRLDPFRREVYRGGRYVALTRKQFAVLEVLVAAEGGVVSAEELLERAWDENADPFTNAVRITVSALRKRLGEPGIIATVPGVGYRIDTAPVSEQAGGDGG

[4] = biological target: T2, full-length VanR from Streptomyces …; assay: AUC; sedimentation velocity, 20°C, 50 mM Tris pH 7.5, 50 mM NaCl, 10 mM MgCl2, without beryllium fluoride; 36.5 µM monomer; monomer-dimer model (dimer to monomers); settings: both partners purified

Molecule: [F][Be-]([F])[F] [beryllium fluoride]
- X-ray crystallography, 2.03 A co-crystal structure [1]: The Be atom is bound to one of the carboxylate O atoms of Asp51

Molecule: full-length VanR from Streptomyces coelicolor, activated state (beryllium fluoride bound at Asp51) (natural protein)
- stoichiometry N [2]: 2

B1: full-length VanR from Streptomyces coelicolor, inactive (unphosphorylated) state (natural protein)
chain: GMRVLIVEDEPYLAEAIRDGLRLEAIAADIAGDGDTALELLSVNAYDIAVLDRDIPGPSGDEIAERIVASGSGMPILMLTAADRLDDKASGFGLGADDYLTKPFELQELALRLRALDRRRAHSRPPVREIAGLRLDPFRREVYRGGRYVALTRKQFAVLEVLVAAEGGVVSAEELLERAWDENADPFTNAVRITVSALRKRLGEPGIIATVPGVGYRIDTAPVSEQAGGDGG
modifications: unphosphorylated at Asp51 (paper numbering; entity position 52), no beryllium fluoride; Mg2+ present (10 mM MgCl2 in AUC). Wild-type residues 1-231 plus the N-terminal Gly left after SUMO cleavage. …
- Kd [3]: 37 µM
- Kd [4]: > 1000 µM
